Earlier results as cited in article PMC8291714.

Biological target: N protein (N-RNA ring) (Rabies lyssavirus) (UniProt Q8JXF6)
UniProt Q8JXF6, sequence (Q8JXF6 whole entry): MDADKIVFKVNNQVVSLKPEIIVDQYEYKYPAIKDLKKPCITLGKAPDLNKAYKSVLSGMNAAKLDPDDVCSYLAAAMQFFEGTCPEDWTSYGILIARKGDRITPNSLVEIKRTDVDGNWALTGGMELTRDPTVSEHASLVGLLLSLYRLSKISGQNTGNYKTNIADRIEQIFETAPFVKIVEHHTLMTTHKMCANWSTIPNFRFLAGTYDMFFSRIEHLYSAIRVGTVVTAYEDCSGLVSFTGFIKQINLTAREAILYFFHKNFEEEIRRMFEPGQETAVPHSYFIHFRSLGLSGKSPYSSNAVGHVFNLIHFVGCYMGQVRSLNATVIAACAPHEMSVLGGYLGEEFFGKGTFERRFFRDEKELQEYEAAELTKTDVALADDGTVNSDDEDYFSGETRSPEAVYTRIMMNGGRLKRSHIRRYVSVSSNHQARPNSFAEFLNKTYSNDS

P protein CTD (from UniProt P22363)
Kd: 0.16 µM
